# Measured values: patent publication US20240299570A1 (CELGENE, published 2024)
# Target: T1, BCMA on BCMA-positive myeloma cell lines (NCI-H929, ARP-1, U266B1) (Homo sapiens (Human), UniProt Q02223 1-184)
# T1 sequence: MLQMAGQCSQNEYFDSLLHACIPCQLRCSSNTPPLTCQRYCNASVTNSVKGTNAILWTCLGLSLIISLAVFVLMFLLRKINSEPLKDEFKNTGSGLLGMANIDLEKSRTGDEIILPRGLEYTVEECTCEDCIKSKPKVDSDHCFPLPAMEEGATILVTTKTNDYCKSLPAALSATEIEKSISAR
# Test: cell-based or functional assay
binder,measurement,value
"Antibody 2265-F02 (antibody, V domains shown) VH: EVQLVESGGGLVQPGGSLRLSCAASGFNISAPGIHWVRQAPGKGLEWVGFINPAGGYTDYADSVKGRFTISADTSKNTAYLQMNSLRAEDTAVYYCARDYIRQYWTYVLDYWGQGTLVTVSS VL: not shown","ARP-1, Conjugate M 2° antibody cell killing, EC50",1.9 nM
same,"U266B1, Conjugate M 2° antibody cell killing, EC50",0.9 nM
